Series [1] can be described thus: AMSA wash performance, specificity of inhibitory effect of propeptide. The method, then: (§1) Washing experiments were performed using Automatic Mechanical Stress Assay (AMSA) in order to assess the wash performance in laundry. The AMSA plate has a number of slots for test solutions and a lid firmly squeezing the laundry sample, the textile to be washed against all the slot openings. During the washing time, the plate, test solutions, textile and lid were vigorously shaken to bring the test solution in contact with the textile and apply mechanical stress in a regular, periodic oscillating manner. For further description see WO02/42740 especially the paragraph “Special method embodiments” at page 23-24.
(§2) The laundry experiments were conducted in Model Detergent B, pH8. The experimental conditions are specified below:
(§3) Final adjustments to the specified pH were done with NaOH or citric acid. Water hardness was adjusted to 15° dH by addition of CaCl2 and MgCl2 (Ca^2+:Mg^2+=4:1) to the test system.
(§4) After washing the textiles were flushed in tap water and excess water was removed from the textiles using filter paper and immediately thereafter the textiles were dried at 85° C. for 5 min.
(§5) The wash performance was measured as the color change of the washed soiled textile. The soil was cream mixed with turmeric. Turmeric contains the colorant curcumin, which function as a pH indicator by having pH dependent color change. Lipase activity leads to release of free fatty acids from the cream acylglycerides and this leads to pH decrease and thereby color change of the curcumin pH indicator. Lipase wash performance can therefore be expressed as the extent of color change of light reflected-emitted from the washed soiled textile when illuminated with white light.
(§6) Color measurements were made with a professional flatbed scanner (EPSON EXPRESSION 10000XL, Atea NS, Lautrupvang 6, 2750 Ballerup, Denmark), which was used to capture an image of the washed soiled textile. To extract a value for the light intensity from the scanned images, 24-bit pixel values from the image were converted into values for red, green and blue (RGB).
(§7) Color change due to lipase activity was measured as the increase in the reflection-emitting of green light (G) relative to the sum of reflected-emitted blue (B) and red (R) light. The wash performance (RP(Wash)) of a lipase relative to a reference lipase (Lipolase™) was calculated as: RP(Wash)=(G/(B+R)(tested lipase)−G/(B+R)(no enzyme))/(G/(B+R)(lipase ref.)−G/(B+R)(no enzyme)).
The inhibitory specificity of the isolated propeptide was determined by mixing the isolated propeptide in a 320:1 molar ratio with 5 different lipases including the active RmL. All enzymes were diluted in 10 mM succinic acid buffer, pH6.5, to a concentration of 1.5 uM and were mixed (1:1) with purified propeptide dilutions. After 3 hours incubation at 4° C. the lipase performance of the incubated lipase-inhibitor samples were determined by Automatic Mechanical Stress Assay (AMSA) as described above. The relative wash performance “RP(wash)” is for each lipase normalized to the wash performance without inhibitor.

Series [2] in a line: AMSA wash performance after activation with detergent and/or protease. Further details: key to No (RP) / Det (RP) / Sav (RP) / Det + Sav (RP): wash performance relative to reference lipase (Lipolase), RP ratio. The method, then: as §1, §2, §3, §4, §5, §6, §7
Wild type RmL without or with propeptide respectively were submitted to no, detergent, protease or detergent+protease treatment prior to performance test in AMSA to test the activation level of the lipase after the treatment. […] […] Wash performance of all samples were determined by Automatic Mechanical Stress Assay (AMSA) as described above.

Series [3] can be described thus: Hydrolytic activity, kinetic assay with p-nitrophenyl acyl esters. The series is classed as biochemical. To be noted: substrates C3, C6, C10, C12, C16 at 1 mM; 50 mM Tris pH 7.7, 0.4% TritonX-100; 405 nm for 5 minutes. The method, then: The hydrolytic activity of RmL with and without propeptide on various fatty acids was investigated in a kinetic assay using p-nitrophenyl acyl esters as substrate. The 100 mM stock solutions in DMSO of the substrates: p-Nitrophenyl butyrate (C3), p-Nitrophenyl caproate (C6), p-Nitrophenyl caprate (C10), p-Nitrophenyl laurate (C12) and p-Nitrophenyl palmitate (C16) (all from Sigma-Aldrich Danmark NS, Kirkebjerg Allé 84, 2605 Brondby; Cat. no.: C3:N-9876, C6: N-0502, C10: N-0252, C12: N-2002, C16: N-2752) were diluted to a final concentration of 1 mM into assay buffer (50 mM Tris; pH 7.7; 0.4% TritonX-100).
RmL with and without propeptide and appropriate controls: Buffer (negative), Lipex™ (positive) RmL with and without propeptide in 50 mM Hepes pH8.0; 10 ppm TritonX-100; 20 mM CaCl2 were added to the substrate solution in the following final concentrations: 0.01 mg/mL; 5×10^−3 mg/mL; […]; and 1.25×10^−4 mg/mL in 96-well NUNC plates (Cat. No: 260836, Kamstrupvej 90, DK-4000, Roskilde). Release of p-nitrophenol by hydrolysis of p-nitrophenyl acyl was monitored at 405 nm for 5 minutes in 10 second intervals on a Spectra max 190 (Molecular Devices GmbH, Bismarckring 39, 88400 Biberach an der Riss, GERMANY).

A short description of series [4]: Thermostability by Differential Scanning Calorimetry (DSC). The series is classed as physicochemical. To be noted: 50 mM HEPES, 100 mM NaCl, 1 mM CaCl2, pH8.0; heating rate 200 K/hr. The method, then: The thermostability of Rhizomucor miehei lipase, RmL (SEQ ID NO: 3) with or without non covalently bound native propeptide (SEQ ID NO: 4) was determined by Differential Scanning calorimetry (DSC) using a VP-Capillary Differential Scanning calorimeter (MicroCal Inc., Piscataway, N.J., USA).
The thermal denaturation temperature, Td (° C.), was taken as the top of denaturation peak (major endothermic peak) in thermograms (Cp vs. T) obtained after heating enzyme solutions in buffer (50 mM HEPES; 100 mM NaCl; 1 mM CaCl2; pH8.0) at a constant programmed heating rate of 200 K/hr. RmL without propeptide added was analyzed at a concentration of 0.42 mg/mL, where as in presence of propeptide the concentration of RmL was 0.34 mg/mL as a consequence of mixing of 440 uL enzyme solution (at 0.42 mg/mL) and 100 uL peptid solution at a concentration of 480 uM (concentration determined by amino acid analysis)
Sample- and reference-solutions (approx. 0.2 mL) were loaded into the calorimeter (reference: buffer without enzyme) from storage conditions for 3 hours (mixing) at 10° C. and thermally pre-equilibrated for approx. 20 minutes at 20° C. prior to DSC scan from 20° C. to 100° C. Denaturation temperatures were determined at an accuracy of approximately +/−1° C.

A short description of series [5]: AMSA wash performance, propeptide dose response. To be noted: Model B/50 mM glycine pH 8; normalized to wash performance without inhibitor; 3 hours incubation at 4° C. The method, then: as §1, §2, §3, §4, §5
Color measurements were made with a professional flatbed scanner (EPSON EXPRESSION 10000XL, Atea NS, Lautrupvang 6, 2750 Ballerup, Denmark), which was used to capture an image of the washed soiled textile. […]
as §7
The inhibitory effect of the isolated propeptide (PP) was determined by mixing isolated propeptide in molar excess with separately purified active RmL core-enzyme at increasing molar ratios of propeptide to lipase. […] After 3 hours incubation at 4° C. lipase wash performance of the incubated lipase-inhibitor samples were determined by Automatic Mechanical Stress Assay (AMSA) as described above. […]

B1: RmL: Rhizomucor miehei lipase mature protein (SEQ ID NO: 3), without propeptide (protein, listed as Rhizomucor miehei)
chain: SIDGGIRAATSQEINELTYYTTLSANSYCRTVIPGATWDCIHCDATEDLKIIKTWSTLIYDTNAMVARGDSEKTIYIVFRGSSSIRNWIADLTFVPVSYPPVSGTKVHKGFLDSYGEVQNELVATVLDQFKQYPSYKVAVTGHSLGGATALLCALDLYQREEGLSSSNLFLYTQGQPRVGDPAFANYVVSTGIPYRRTVNERDIVPHLPPAAFGFLHAGEEYWITDNSPETVQVCTSDLETSDCSNSIVPFTSVLDHLSYFGINTGLCT
Regarding B1, the “With inhibitor RP (wash)” value in series [1] (propeptide SEQ ID No: 4 in 320:1 molar ratio, 3 hours at 4° C., normalized to wash performance without inhibitor) was 0.02. Further, the “No inhibitor RP (wash)” value in series [1] (without propeptide SEQ ID No: 4, normalized per lipase) came to 1.00. For the same molecule, in series [2] (60 minutes in 10 mM succinic acid pH6.5), the “No (RP)” value was found to be 1.00. The “Sav (RP)” value in series [2] (60 minutes in 1.35% (v/v) Savinase in 10 mM succinic acid pH6.5) worked out at 0.99. In addition, in series [2] (60 minutes in 1.35% (v/v) Savinase in 77% (w/w) Detergent B), the “Det + Sav (RP)” value is listed as 0.84. For the same molecule, the “Det (RP)” value in series [2] (60 minutes in 77% (w/w) Model detergent B) was found to be 0.89. Besides, in series [3], the “hydrolytic activity on p-nitrophenyl acyl esters” value was “activity in all conditions tested”. Moreover, the “Thermostability Td at pH 8.0” value in series [4] stood at 61 °C. Also, in series [5], the “RP (wash) Rep. 1” value is 1.00, the “RP (wash) Rep. 2” value is recorded as 1.00, the “RP (wash) Rep. 3” value is listed as 1.00 and the “RP (wash) Rep. 4” value was found to be 1.00.

The values above are taken from patent US10221404B2, “Method for modifying characteristics of a lipase” (Novozymes A/S, priority 2014, dated 2019).
